Experimental data from paper PMC8444507 (Signal Transduction and Targeted Therapy, 2021).
Several values for one entry are separate records, joined by “and”; a condition that tells them apart may be missing. Equal entries are not always repeated.

Target: T1, wild-type human ACE2 peptidase domain (PD) (human, UniProt Q9BYF1 19-615)
T1 construct: also called ACE2/WT; ACE2 WT
Experiment: SPR
Settings: both partners purified

T1 sequence (Q9BYF1 19-615): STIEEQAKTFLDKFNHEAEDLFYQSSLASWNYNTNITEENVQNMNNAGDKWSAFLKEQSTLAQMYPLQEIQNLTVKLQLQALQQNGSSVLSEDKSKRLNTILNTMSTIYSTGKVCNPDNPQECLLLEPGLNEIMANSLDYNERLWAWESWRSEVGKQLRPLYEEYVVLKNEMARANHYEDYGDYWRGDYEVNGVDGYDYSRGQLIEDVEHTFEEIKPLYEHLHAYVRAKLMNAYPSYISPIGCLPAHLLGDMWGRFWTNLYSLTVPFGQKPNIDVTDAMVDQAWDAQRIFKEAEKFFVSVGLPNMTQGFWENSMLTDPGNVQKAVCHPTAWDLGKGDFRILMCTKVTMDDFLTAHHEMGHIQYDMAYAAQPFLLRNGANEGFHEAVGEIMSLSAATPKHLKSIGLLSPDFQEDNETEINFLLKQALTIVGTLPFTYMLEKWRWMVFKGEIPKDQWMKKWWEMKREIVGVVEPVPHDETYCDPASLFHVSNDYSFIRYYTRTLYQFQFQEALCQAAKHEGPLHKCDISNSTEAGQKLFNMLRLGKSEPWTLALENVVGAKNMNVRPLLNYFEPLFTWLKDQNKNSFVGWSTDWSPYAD

B1: SARS-CoV spike receptor-binding domain (S-RBD), wild-type (domain or fragment)
chain: not shown
With B1 the Kd was 523 nM and 971 nM and 500 nM.
